Stoichiometry N data for one substance are collected here from article PMC8962422.

In the assay the target is CM19XA (UniProt P15391). The assay can be described thus: SEC; ENrich SEC 650 column on an NGC system, running buffer PBS, peak positions compared with BioRad size exclusion standards; after Ni-NTA purification.

“CM19XA (from UniProt P15391 20-291; Q9Y624 28-238)” yielded a stoichiometry N of 2.

What is called stoichiometry N is the number of molecules, sites or subunits per partner or assembly.
